Reference: patent US20220031820

Tested on: T1, recombinant syndecan-1
T1 sequence (P18827 whole entry, species assumed, looked up): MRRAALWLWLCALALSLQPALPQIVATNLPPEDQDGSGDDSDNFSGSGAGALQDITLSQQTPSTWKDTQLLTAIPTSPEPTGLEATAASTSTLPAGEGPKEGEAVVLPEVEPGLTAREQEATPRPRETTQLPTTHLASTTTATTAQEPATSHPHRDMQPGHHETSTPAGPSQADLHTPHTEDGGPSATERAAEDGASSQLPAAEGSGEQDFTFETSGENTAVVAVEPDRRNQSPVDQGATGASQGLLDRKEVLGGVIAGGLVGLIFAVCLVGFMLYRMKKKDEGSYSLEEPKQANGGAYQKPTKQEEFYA

Substance: recombinant GzmB
- in vitro syndecan-1 cleavage assay (coomassie gel); GzmB 500 nM, syndecan-1 0.7 ug: syndecan-1 was cleaved by all three granzymes
